Laboratory results reported in PMC6219920 (Developmental cell, 2018).

Biological target: wild type CENP-A complexed with histone H4 (human, UniProt P49450 1-140; P62805 1-103)
Assay: pull-down

binding result: binds
B1: MBP-HJURP^1−208 (domain or fragment)
chain: MLGTLRAMEGEDVEDDQLLQKLRASRRRFQRRMQRLIEKYNQPFEDTPVVQMATLTYETPQGLRIWGGRLIKERNEGEIQDSSMKPADRTDGSVQAAAWGPELPSHRTVLGADSKSGEVDATSDQEESVAWALAPAVPQSPLKNELRRKYLTQVDILLQGAEYFECAGNRAGRDVRVTPLPSLASPAVPAPGYCSRISRKSPGDPAKP
